Assay [1] addresses T1, recombinant human ROR1 extracellular domain (human, UniProt Q01973 30-406).
T1 construct: biotinylated for the filter lifts; also called huROR1-ECD; human ROR1-ECD
Nature of the assay: ELISA with prolonged wash, soluble Fab on coated huROR1-ECD. The procedure: (§1) The previously described filter lift assay provides a visual, qualitative assessment of antigen binding (Example 1). In order to assess the ROR1 binding activity of Ab1 Fab in a more quantitative fashion, an ELISA assay was developed. A 96-well Costar-3366 plate was coated with 50 μL/well of 1 μg/mL human ROR1-ECD (ACROBiosystems, cat. #RO1-H522y) in PBS overnight at 4° C. The plate was rinsed once with PBS-T and blocked with 100 μL/well of 5% M-P for 1 h at 25° C. Fab samples were serially diluted 3-fold using 5% M-P and 50 μL/well was incubated for 1 h at 25° C. The plate was washed three times with PBS-T and 50 μL/well anti-human kappa, and HRP conjugate (Southern Biotech, cat. #2060-05) diluted 10,000-fold in 5% M-P was added for 1 h at 25° C. In certain assays (extended wash format), the plate was placed in large volumes (up to 1 L) of PBS-T and incubated, with mixing, for 2-5 h prior to the addition of anti-human kappa, HRP conjugate. The plate was washed three times with PBS-T, and developed with 50 μL/well 1-Step Ultra TMB-ELISA (Thermo Scientific, cat. #34028). The reaction was terminated by the addition of 2 N H2504 and the A450 was determined using a Spectramax plate reader.
(§2) Subsequently, the libraries were screened by capture lift to identify the strongest binding variants. The identity of the variants was determined by DNA sequencing and the relative affinities were characterized using an ELISA (described in Example 2) modified to enable further discrimination between the highest affinity variants. Specifically, following the initial incubation with soluble Fab, the plates were washed for a prolonged time (>1 h) in large volumes of PBS-T. The plates were then developed as described in Example 2.
(In general: An ELISA detects its analyte on a solid surface through an enzyme-linked reagent.)

Assay [2] concerns the target T1, recombinant human ROR1 extracellular …. The description is as above. As for the experimental part:
as §1, §2
The source holds these as a separate data set.

Assay [3] has the same target. Nature of the assay: ELISA, soluble Fab on coated huROR1-ECD. The procedure:
as §1

Assay [4] shares this target. Kind of assay: ELISA, soluble Fab on coated huROR1-ECD. This is another data set of the same source.
Assay [5] addresses T2, human ROR1 on live cells (human, UniProt Q01973 30-937).
T2 construct: ROR1-transfected MEC cells (~56,000 copies/cell) or JeKo-1 cells (~13,000 copies/cell); the cell line is named under assay; also called ROR1-transfected MEC cells; JeKo-1 cells
Kind of assay: flow cytometry on live JeKo-1 cells, Fab detected with anti-HA-PE. As for the experimental part: ROR1 binding was quantitated using flow cytometry and 2.5E5 ROR1-transfected MEC cells or JeKo-1 cells for each concentration of Fab variant. The cells were placed in 50 μL of PBS with 2% FBS. Next, the cells were diluted with an equal volume of 2× stock of the test Fab variant and the cells and antibody were co-incubated on ice for 20 min. The cells were then washed 3 times with 300 μL of FACS buffer and were resuspended in 100 μL of a 70-fold dilution of anti-HA.11-PE conjugate, clone 16B12 (BioLegend, cat. #901517) and incubated on ice with reduced light for 20 min. Subsequently, the cells were washed 3 times with 300 μL of FACS buffer and fixed with 2% paraformaldehyde for 10 min at 25° C. The cells then were washed 2 times with 300 μL of FACS buffer and analyzed on a Miltenyi MACSQuant Analyzer.

Assay [6] deals with T1, recombinant human ROR1 extracellular …. Kind of assay: ELISA with prolonged wash, soluble Fab on coated huROR1-ECD. The procedure:
as §1, §2
The source holds these as a separate data set.

For assay [7] the target is unchanged. Kind of assay: ELISA, soluble Fab on coated huROR1-ECD. The source holds these as a separate data set.

T2 sequence (Q01973 30-937 limits assumed): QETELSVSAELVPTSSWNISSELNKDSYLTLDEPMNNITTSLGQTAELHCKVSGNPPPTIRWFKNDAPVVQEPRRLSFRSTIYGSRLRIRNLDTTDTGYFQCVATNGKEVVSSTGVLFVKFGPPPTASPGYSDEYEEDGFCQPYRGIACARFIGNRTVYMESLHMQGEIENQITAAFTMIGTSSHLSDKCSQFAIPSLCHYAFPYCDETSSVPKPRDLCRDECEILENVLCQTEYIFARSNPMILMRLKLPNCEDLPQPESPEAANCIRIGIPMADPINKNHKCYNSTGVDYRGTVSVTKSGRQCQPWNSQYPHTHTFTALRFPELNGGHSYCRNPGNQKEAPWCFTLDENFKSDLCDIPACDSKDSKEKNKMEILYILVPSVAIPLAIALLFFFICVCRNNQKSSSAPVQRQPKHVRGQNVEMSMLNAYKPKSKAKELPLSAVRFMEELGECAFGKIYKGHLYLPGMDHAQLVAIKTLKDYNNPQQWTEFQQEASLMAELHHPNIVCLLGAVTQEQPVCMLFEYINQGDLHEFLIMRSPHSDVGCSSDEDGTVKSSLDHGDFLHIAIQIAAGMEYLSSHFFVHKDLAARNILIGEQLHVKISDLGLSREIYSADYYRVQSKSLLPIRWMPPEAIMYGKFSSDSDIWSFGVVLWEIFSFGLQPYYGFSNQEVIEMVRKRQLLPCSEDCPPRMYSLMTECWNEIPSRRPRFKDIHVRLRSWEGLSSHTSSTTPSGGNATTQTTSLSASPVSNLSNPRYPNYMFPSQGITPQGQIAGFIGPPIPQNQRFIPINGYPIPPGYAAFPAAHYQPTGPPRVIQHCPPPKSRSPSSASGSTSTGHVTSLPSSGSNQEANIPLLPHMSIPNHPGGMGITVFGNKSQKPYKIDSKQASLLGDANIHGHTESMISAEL
T1 sequence (Q01973 30-406 limits assumed): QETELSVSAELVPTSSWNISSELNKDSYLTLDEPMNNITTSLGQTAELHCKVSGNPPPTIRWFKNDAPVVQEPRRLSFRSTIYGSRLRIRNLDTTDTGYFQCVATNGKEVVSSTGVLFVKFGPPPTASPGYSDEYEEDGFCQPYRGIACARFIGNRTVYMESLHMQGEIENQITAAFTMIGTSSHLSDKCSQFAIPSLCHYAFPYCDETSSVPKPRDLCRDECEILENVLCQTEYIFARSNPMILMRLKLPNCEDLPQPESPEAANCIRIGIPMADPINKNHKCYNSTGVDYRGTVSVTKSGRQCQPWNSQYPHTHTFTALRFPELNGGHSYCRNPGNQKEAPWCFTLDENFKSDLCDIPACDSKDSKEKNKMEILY

B1: Ab1 Fab variant H1 T32A + L1 A25P (Fab, V domains shown)
VH: QVQLQESGPGLVKPSQTLSLTCTVSGYAFAAYNIHWVRQAPGQGLEWMGSFDPYDGGSSYNQKFKDRLTISKDTSKNQVVLTMTNMDPVDTATYYCARGWYYFDYWGHGTLVTVSS
VL: DIVMTQTPLSLPVTPGEPASISCRPSKSISKYLAWYQQKPGQAPRLLIYSGSTLQSGIPPRFSGSGYGTDFTLTINNIESEDAAYYFCQQHDESPYTFGEGTKVEIK
notes: Fab
A word on the Kd: it is the equilibrium constant for the complex coming apart. Consider B1, for which the Kd in assay [1] and in assay [2] was 1.8 nM in each case.

B2: Ab1 Fab variant H3 W110F (Fab, V domains shown)
VH: QVQLQESGPGLVKPSQTLSLTCTVSGYAFTAYNIHWVRQAPGQGLEWMGSFDPYDGGSSYNQKFKDRLTISKDTSKNQVVLTMTNMDPVDTATYYCARGFYYFDYWGHGTLVTVSS
VL: DIVMTQTPLSLPVTPGEPASISCRASKSISKYLAWYQQKPGQAPRLLIYSGSTLQSGIPPRFSGSGYGTDFTLTINNIESEDAAYYFCQQHDESPYTFGEGTKVEIK
notes: Fab
Take B2: in assay [3], the dissociation constant Kd amounted to 96 nM.

B3: Ab1 Fab variant H3 W110H (Fab, V domains shown)
VH: QVQLQESGPGLVKPSQTLSLTCTVSGYAFTAYNIHWVRQAPGQGLEWMGSFDPYDGGSSYNQKFKDRLTISKDTSKNQVVLTMTNMDPVDTATYYCARGHYYFDYWGHGTLVTVSS
VL: DIVMTQTPLSLPVTPGEPASISCRASKSISKYLAWYQQKPGQAPRLLIYSGSTLQSGIPPRFSGSGYGTDFTLTINNIESEDAAYYFCQQHDESPYTFGEGTKVEIK
notes: Fab
For B3, the Kd in assay [3] amounted to 110 nM.

B4: Ab1 Fab variant H3 W110Y (Fab, V domains shown)
VH: QVQLQESGPGLVKPSQTLSLTCTVSGYAFTAYNIHWVRQAPGQGLEWMGSFDPYDGGSSYNQKFKDRLTISKDTSKNQVVLTMTNMDPVDTATYYCARGYYYFDYWGHGTLVTVSS
VL: DIVMTQTPLSLPVTPGEPASISCRASKSISKYLAWYQQKPGQAPRLLIYSGSTLQSGIPPRFSGSGYGTDFTLTINNIESEDAAYYFCQQHDESPYTFGEGTKVEIK
notes: Fab
Consider B4, for which the “fold reduction of binding against Ab1” value in assay [4] fell in the range of 10 to 23 fold. The Kd in assay [3] worked out at 68 nM.

B5: Ab1 Fab variant H3 W110M (Fab, V domains shown)
VH: QVQLQESGPGLVKPSQTLSLTCTVSGYAFTAYNIHWVRQAPGQGLEWMGSFDPYDGGSSYNQKFKDRLTISKDTSKNQVVLTMTNMDPVDTATYYCARGMYYFDYWGHGTLVTVSS
VL: DIVMTQTPLSLPVTPGEPASISCRASKSISKYLAWYQQKPGQAPRLLIYSGSTLQSGIPPRFSGSGYGTDFTLTINNIESEDAAYYFCQQHDESPYTFGEGTKVEIK
notes: Fab
In the case of B5, the “fold reduction of binding against Ab1” value in assay [4] fell in the range of 10 to 23 fold. In assay [3], the Kd was determined as 160 nM.

B6: Ab1 Fab variant H1 T32A + L1 A25P + L2 T69R (Fab, V domains shown)
VH: QVQLQESGPGLVKPSQTLSLTCTVSGYAFAAYNIHWVRQAPGQGLEWMGSFDPYDGGSSYNQKFKDRLTISKDTSKNQVVLTMTNMDPVDTATYYCARGWYYFDYWGHGTLVTVSS
VL: DIVMTQTPLSLPVTPGEPASISCRPSKSISKYLAWYQQKPGQAPRLLIYSGSRLQSGIPPRFSGSGYGTDFTLTINNIESEDAAYYFCQQHDESPYTFGEGTKVEIK
notes: Fab
Usually EC50 (read off the curve) stands for the concentration giving half of the maximal effect. A higher EC50 (read off the curve) goes with lower potency in that assay. With B6, the Kd in assay [1] stood at 2.1 nM; in assay [2] it was 2.4 nM. In assay [5], the “EC50 (read off the curve)” value was approximately 1 nM.

B7: Ab1 Fab variant H1 T32A + L1 A25P + L2 Q71T (Fab, V domains shown)
VH: QVQLQESGPGLVKPSQTLSLTCTVSGYAFAAYNIHWVRQAPGQGLEWMGSFDPYDGGSSYNQKFKDRLTISKDTSKNQVVLTMTNMDPVDTATYYCARGWYYFDYWGHGTLVTVSS
VL: DIVMTQTPLSLPVTPGEPASISCRPSKSISKYLAWYQQKPGQAPRLLIYSGSTLTSGIPPRFSGSGYGTDFTLTINNIESEDAAYYFCQQHDESPYTFGEGTKVEIK
notes: Fab
For the molecule B7, the Kd in assay [2] came to 2.9 nM.

B8: Ab1 Fab variant H1 T32A + L2 T69R (Fab, V domains shown)
VH: QVQLQESGPGLVKPSQTLSLTCTVSGYAFAAYNIHWVRQAPGQGLEWMGSFDPYDGGSSYNQKFKDRLTISKDTSKNQVVLTMTNMDPVDTATYYCARGWYYFDYWGHGTLVTVSS
VL: DIVMTQTPLSLPVTPGEPASISCRASKSISKYLAWYQQKPGQAPRLLIYSGSRLQSGIPPRFSGSGYGTDFTLTINNIESEDAAYYFCQQHDESPYTFGEGTKVEIK
notes: Fab
With B8, the Kd in assay [1] stood at 2.3 nM; in assay [6], 1.1 nM. Moreover, the “EC50 (read off the curve)” value in assay [5] was approximately 2 nM.

B9: Ab1 Fab variant H1 T32E (Fab, V domains shown)
VH: QVQLQESGPGLVKPSQTLSLTCTVSGYAFEAYNIHWVRQAPGQGLEWMGSFDPYDGGSSYNQKFKDRLTISKDTSKNQVVLTMTNMDPVDTATYYCARGWYYFDYWGHGTLVTVSS
VL: DIVMTQTPLSLPVTPGEPASISCRASKSISKYLAWYQQKPGQAPRLLIYSGSTLQSGIPPRFSGSGYGTDFTLTINNIESEDAAYYFCQQHDESPYTFGEGTKVEIK
notes: Fab
For the molecule B9, the Kd in assay [7] turned out to be 3.3 nM. Besides, the “fold increase of binding against Ab1” value in assay [4] was approximately 2 fold.

B10: Ab1 Fab variant H1 T32A + L1 A25P + L2 T69H (Fab, V domains shown)
VH: QVQLQESGPGLVKPSQTLSLTCTVSGYAFAAYNIHWVRQAPGQGLEWMGSFDPYDGGSSYNQKFKDRLTISKDTSKNQVVLTMTNMDPVDTATYYCARGWYYFDYWGHGTLVTVSS
VL: DIVMTQTPLSLPVTPGEPASISCRPSKSISKYLAWYQQKPGQAPRLLIYSGSHLQSGIPPRFSGSGYGTDFTLTINNIESEDAAYYFCQQHDESPYTFGEGTKVEIK
notes: Fab
B10: the Kd in assay [2] came to 2.3 nM.

B11: Ab1 Fab variant H1 T32A + L2 T69R, Q71T (Fab, V domains shown)
VH: QVQLQESGPGLVKPSQTLSLTCTVSGYAFAAYNIHWVRQAPGQGLEWMGSFDPYDGGSSYNQKFKDRLTISKDTSKNQVVLTMTNMDPVDTATYYCARGWYYFDYWGHGTLVTVSS
VL: DIVMTQTPLSLPVTPGEPASISCRASKSISKYLAWYQQKPGQAPRLLIYSGSRLTSGIPPRFSGSGYGTDFTLTINNIESEDAAYYFCQQHDESPYTFGEGTKVEIK
notes: Fab
As for B11, the dissociation constant Kd in assay [6] was 1.1 nM. Besides, the concentration giving a half-maximal response (EC50 (read off the curve)) in assay [5] was approximately 1 nM.

B12: Ab1 Fab variant H1 T32A + L1 A25P + L2 L70K (Fab, V domains shown)
VH: QVQLQESGPGLVKPSQTLSLTCTVSGYAFAAYNIHWVRQAPGQGLEWMGSFDPYDGGSSYNQKFKDRLTISKDTSKNQVVLTMTNMDPVDTATYYCARGWYYFDYWGHGTLVTVSS
VL: DIVMTQTPLSLPVTPGEPASISCRPSKSISKYLAWYQQKPGQAPRLLIYSGSTKQSGIPPRFSGSGYGTDFTLTINNIESEDAAYYFCQQHDESPYTFGEGTKVEIK
notes: Fab
For the molecule B12, in assay [2], the Kd turned out to be 2.1 nM. The “EC50 (read off the curve)” value in assay [5] is approximately 1 nM.
